Where “and” joins values, the source holds several entries; their conditions need not be identical. Identical values can stand only once.
Settings: Mus musculus; pH 3.5; 23 °C; GdnHCl; Fluorescence; citrate-phosphate 100 mM; reversible: yes; whole UniProt chain shown

B1: Neurotrophin-3 wild type, P20181 (protein)
chain: MSILFYVIFLAYLRGIQGNSMDQRSLPEDSLNSLIIKLIQADILKNKLSKQMVDVKENYQSTLPKAEAPREPEQGEATRSEFQPMIATDTELLRQQRRYNSPRVLLSDSTPLEPPPLYLMEDYVGNPVVANRTSPRRKRYAEHKSHRGEYSVCDSESLWVTDKSSAIDIRGHQVTVLGEIKTGNSPVKQYFYETRCKEARPVKNGCRGIDDKHWNSQCKTSQTYVRALTSENNKLVGWRWIRIDTSCVCALSRKIGRT
denaturant m value: 3.4 kcal/mol/M and 4 kcal/mol/M and 5.1 kcal/mol/M | denaturant midpoint (higher = more stable): 1.4 M and 2.2 M and 2.1 M | unfolding free energy: 12.7 kcal/mol and 17 kcal/mol and 19 kcal/mol
